Data on 2 substances can be found in IntAct's records for PubMed 20562859.

Assay [1] concerns the target T1, rasf3_human RASSF3 (UniProt Q86WH2).
T1 sequence: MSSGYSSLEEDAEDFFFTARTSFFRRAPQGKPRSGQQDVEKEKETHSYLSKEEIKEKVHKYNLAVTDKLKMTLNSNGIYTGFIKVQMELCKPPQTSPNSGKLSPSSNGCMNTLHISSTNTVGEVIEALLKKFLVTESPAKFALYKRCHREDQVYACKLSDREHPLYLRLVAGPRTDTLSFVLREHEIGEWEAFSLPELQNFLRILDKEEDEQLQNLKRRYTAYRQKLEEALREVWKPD

Assay [2] deals with T2, rasf5_human RASSF5 (UniProt Q8WWW0).
T2 sequence: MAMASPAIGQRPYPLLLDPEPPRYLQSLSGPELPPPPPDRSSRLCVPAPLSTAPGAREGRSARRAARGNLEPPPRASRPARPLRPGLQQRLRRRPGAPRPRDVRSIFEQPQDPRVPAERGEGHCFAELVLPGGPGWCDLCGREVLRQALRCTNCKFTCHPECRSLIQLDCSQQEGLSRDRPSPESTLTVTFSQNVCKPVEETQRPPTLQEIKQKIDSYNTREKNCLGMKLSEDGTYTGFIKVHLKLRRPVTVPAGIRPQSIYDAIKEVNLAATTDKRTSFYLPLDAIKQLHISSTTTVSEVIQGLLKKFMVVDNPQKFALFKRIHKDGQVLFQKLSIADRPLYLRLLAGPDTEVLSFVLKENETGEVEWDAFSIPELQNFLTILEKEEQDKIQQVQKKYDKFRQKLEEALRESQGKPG

The target in assay [3] is T3, tbc15_human TBC1D15 (UniProt Q8TC07).
T3 sequence: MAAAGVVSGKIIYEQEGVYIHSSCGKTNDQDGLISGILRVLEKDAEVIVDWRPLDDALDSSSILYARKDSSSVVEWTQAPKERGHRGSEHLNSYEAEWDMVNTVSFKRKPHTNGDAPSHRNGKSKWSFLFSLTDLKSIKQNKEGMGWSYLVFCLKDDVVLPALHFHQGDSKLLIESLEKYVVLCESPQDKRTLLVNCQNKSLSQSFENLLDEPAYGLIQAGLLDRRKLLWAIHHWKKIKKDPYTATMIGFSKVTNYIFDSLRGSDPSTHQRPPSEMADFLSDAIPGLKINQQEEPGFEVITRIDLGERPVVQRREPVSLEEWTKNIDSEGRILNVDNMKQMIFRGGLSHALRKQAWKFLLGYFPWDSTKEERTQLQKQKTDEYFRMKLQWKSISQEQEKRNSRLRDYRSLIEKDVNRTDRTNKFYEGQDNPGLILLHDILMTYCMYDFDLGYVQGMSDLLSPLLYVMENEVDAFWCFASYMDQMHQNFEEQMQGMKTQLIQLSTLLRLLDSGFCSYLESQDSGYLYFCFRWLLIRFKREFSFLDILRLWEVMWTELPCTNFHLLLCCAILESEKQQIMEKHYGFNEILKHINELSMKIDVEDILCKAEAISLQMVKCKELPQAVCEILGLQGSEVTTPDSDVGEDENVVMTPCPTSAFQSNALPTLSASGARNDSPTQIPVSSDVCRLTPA

Assay [4] concerns the target T4, nek9_human NEK9 (UniProt Q8TD19).
T4 sequence: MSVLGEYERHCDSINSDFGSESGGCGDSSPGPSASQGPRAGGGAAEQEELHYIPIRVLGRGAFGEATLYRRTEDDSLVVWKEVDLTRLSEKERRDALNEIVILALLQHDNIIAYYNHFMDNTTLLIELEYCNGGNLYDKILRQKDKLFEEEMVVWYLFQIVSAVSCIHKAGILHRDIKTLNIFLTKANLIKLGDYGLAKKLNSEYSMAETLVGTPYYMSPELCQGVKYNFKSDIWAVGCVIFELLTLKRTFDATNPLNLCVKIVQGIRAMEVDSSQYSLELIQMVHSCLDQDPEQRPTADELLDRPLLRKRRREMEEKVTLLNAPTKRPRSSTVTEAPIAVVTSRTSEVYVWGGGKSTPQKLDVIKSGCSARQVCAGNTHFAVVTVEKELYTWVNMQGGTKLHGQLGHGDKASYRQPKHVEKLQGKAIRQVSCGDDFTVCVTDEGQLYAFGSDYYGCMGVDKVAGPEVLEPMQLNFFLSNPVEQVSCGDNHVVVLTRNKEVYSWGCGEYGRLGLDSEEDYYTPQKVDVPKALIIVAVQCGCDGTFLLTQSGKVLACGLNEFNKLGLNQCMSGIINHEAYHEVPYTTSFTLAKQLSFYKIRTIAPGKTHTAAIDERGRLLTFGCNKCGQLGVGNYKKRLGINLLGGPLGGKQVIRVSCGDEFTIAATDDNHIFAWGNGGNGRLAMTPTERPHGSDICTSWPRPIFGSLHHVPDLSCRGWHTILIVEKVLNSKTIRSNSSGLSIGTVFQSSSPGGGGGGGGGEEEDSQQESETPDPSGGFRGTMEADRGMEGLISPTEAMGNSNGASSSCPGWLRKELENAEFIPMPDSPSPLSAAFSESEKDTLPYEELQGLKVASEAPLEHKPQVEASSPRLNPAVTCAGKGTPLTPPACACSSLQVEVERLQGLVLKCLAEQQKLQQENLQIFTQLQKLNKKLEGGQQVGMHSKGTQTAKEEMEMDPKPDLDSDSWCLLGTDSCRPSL

The target of assay [5] is atg5_human ATG5 (UniProt Q9H1Y0).
Chain of atg5_human ATG5 (Q9H1Y0 whole entry): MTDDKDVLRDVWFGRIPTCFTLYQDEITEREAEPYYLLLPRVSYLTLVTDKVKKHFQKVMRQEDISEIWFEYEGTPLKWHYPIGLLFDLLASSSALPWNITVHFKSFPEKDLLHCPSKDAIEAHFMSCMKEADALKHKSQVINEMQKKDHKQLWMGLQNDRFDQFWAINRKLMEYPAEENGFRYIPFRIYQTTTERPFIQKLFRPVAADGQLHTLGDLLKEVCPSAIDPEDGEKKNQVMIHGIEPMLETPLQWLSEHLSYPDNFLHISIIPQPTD
Assay [6] deals with T5, daaf4_human DNAAF4 (UniProt Q8WXU2).
T5 sequence: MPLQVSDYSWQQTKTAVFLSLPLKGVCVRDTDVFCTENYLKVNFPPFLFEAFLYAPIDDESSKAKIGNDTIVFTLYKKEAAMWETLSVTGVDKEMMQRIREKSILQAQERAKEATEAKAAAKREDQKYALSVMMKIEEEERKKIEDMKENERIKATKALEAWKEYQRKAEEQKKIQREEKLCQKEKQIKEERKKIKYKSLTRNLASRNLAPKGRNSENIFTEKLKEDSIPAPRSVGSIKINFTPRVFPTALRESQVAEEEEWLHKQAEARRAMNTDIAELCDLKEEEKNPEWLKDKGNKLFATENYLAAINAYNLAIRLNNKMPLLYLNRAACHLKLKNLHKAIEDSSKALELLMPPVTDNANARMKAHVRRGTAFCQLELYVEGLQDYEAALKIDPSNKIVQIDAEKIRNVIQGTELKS

Take “Microtubule-associated protein 1 light chain 3 beta (Homo sapiens) (from UniProt Q9GZQ8) F52A;L53A”: the “effect of a mutation on the interaction” value is “increasing interaction” in assay [1]; “increasing interaction” in assay [2]; “decreasing interaction” in assay [3]; “decreasing interaction” in assay [4]; “increasing interaction” in assay [5].

Take “Microtubule-associated protein 1 light chain 3 beta (Homo sapiens) (from UniProt Q9GZQ8) R69A”: the “effect of a mutation on the interaction” value in assay [6], in assay [1] and in assay [3] was “decreasing interaction” each time.
